This note sets out measurements from publication PMC4120998 (Journal of the American Chemical Society, 2014).

The experiment concerns the target CXCR4 on human Jurkat cells (Homo sapiens (endogenous, Jurkat cells), UniProt P61073). The experiment in a line: flow cytometry on cells.

Sequence of CXCR4 on human Jurkat cells (P61073 whole entry): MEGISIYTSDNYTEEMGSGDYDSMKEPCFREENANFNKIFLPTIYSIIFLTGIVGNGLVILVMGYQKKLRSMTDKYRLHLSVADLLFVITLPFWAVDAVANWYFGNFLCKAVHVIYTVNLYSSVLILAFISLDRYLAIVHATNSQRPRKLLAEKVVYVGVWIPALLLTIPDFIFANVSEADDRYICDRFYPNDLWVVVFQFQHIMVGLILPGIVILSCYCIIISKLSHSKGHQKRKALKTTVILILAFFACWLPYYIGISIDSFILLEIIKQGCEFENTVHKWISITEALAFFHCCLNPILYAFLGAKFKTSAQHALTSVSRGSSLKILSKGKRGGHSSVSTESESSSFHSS

B1: bovine antibody BLV1H12 (antibody)
VH: QVQLRESGPSLVKPSQTLSLTCTASGFSLSDKAVGWVRQAPGKALEWLGSIDTGGNTGYNPGLKSRLSITKDNSKSQVSLSVSSVTTEDSATYYCTSVHQETKKYQSCPDGYRERSDCSNRPACGTSDCCRVSVFGNCLTTLPVSYSYTYNYEWHVDVWGQGLLVTVSS
VL: QAVLNQPSSVSGSLGQRVSITCSGSSSNVGNGYVSWYQLIPGSAPRTLIYGDTSRASGVPDRFSGSRSGNTATLTISSLQAEDEADYFCASAEDSSSNAVFGSGTTLTVL
Consider B1, for which the binding result is “no binding (tested: 1 μg/mL)”.
